# B1: 12345: recombinant full length human β2GPI (domains 1-5) with C-terminal GlyHis6, baculovirus expressed (protein)
# chain: GRTCPKPDDLPFSTVVPLKTFYEPGEEITYSCKPGYVSRGGMRKFICPLTGLWPINTLKCTPRVCPFAGILENGAVRYTTFEYPNTISFSCNTGFYLNGADSAKCTEEGKWSPELPVCAPIICPPPSIPTFATLRVYKPSAGNNSLYRDTAVFECLPQHAMFGNDTITCTTHGNWTKLPECREVKCPFPSRPDNGFVNYPAKPTLYYKDKATFGCHDGYSLDGPEEIECTKLGNWSAMPSCKASCKLPVKKATVVYQGERVKIQEKFKNGMLHGDKVSFFCKNKEKKCSYTEDAQCIDGTIEVPKCFKEHSSLAFWKTDASDVKPCGHHHHHH
# B2: recombinant β2GPI domain 5 with GlyHis6 (----5) (protein)
# chain: GRASCKLPVKKATVVYQGERVKIQEKFKNGMLHGDKVSFFCKNKEKKCSYTEDAQCIDGTIEVPKCFKEHSSLAFWKTDASDVKPCGHHHHHH
# What was measured:
# [1] = test system: APS patient plasma; assay: Surface plasmon resonance (BIAcore): APS patient plasma/serum over immobilized β2GPI proteins; assay type: binding, human; set-up: key: Req = fitted equilibrium plateau BIAcore response; conditions: for Req (mean ± sem): diluted 1:1
# Source text: (§1) Reagents. CM5 chips, NHS and EDC and HBS-EP buffer were from BIAcore. Human haptoglobin (phenotyope 1—1), a protein containing the short consensus repeat motif found in β2GPI, was immobilized in a separate flow cell on the chip and used as a negative control. Recombinant β2GPI and domain-deletion mutants of β2GPI were expressed in Tn5 cells using the baculovirus protein expression system and purified from the supernatants by nickel-chelation affinity column. Iverson et al. (1998) Proc. Natl. Acad. Sci. USA 95:15542-15546. Normal human plasma samples were purchased (George King Biomedical) or obtained in-house. Patient plasma samples from individuals diagnosed with either primary or secondary (to lupus) antiphospholipid antibody syndrome were obtained from a number of clinical sources.
# (§2) The 55 controls used in this study were derived from a heterogenous sample. Thirty control samples (15 male; 15 female; mean age 34 yrs, range 19-45 yrs) purchased from George King Bio-Medical (Overland Park, Kans.), 5 local volunteers (3 male, 2 female), 2 pooled commercial sources and 18 blood bank donors of unknown origin were included in the analysis. The patient samples were collected from several sources and included patients with histories of venous thrombosis, arterial occlusions, cerebrovascular occlusions, multiple miscarriages and thrombocytopenia. All patients included in the study had IgG antiphospholipid antibody level (GPL) levels>20 by internal assay.
# Total IgG fraction was isolated from plasma using Immunopure Plus protein G agarose beads and Immunopure IgG binding and elution buffers according to the manufacturers recommendation (Pierce).
# (§3) Surface Plasmon Resonance. All experiments were performed using a BIAcore™ 2000 instrument at 25° C. with a flow rate of 10 μL/minute. Chip equilibration and binding studies were performed with degassed HBS-EP buffer, which consists of 0.01 M HEPES pH 7.4, 0.15 M NaCl, 3 mM EDTA and 0.005% (v/v) surfactant P20. Covalent coupling of protein ligands through their free amino groups to the CM5 chip was accomplished by flowing 40 μL of 0.05 M NHS/0.2M EDC over the chip to activate the chip, followed by exposure to the appropriate protein ligand. Recombinant β2GPI(His)6, domain-deletion mutants of β2GPI and haptoglobin were immobilized by flowing 50 μL of a 25 μg/mL solution in 10 mM acetate, (pH 4.8) over the NHS-activated CM5 chip. The excess reactive groups on the chip surface are then quenched with 40 μL of 1 M ethanoloamine, (pH 8.5). Human plasma samples (130 μL) were diluted 1:1 with HBS-EP, flowed over the β2GPI chip, and response values were collected for 780 seconds. The chips were regenerated between sample exposures with 80 μL of 0.1 M glycine-HCl (pH 2.1), 0.1 M NaCl. Since the approach to binding equilibrium was incomplete during the measurement period, the equilibrium binding value (Req) was determined by fitting the association curves to the following equation using the manufacturers software (BiaEvaluation version 2.2, Uppsala, Sweden) Rt=Req(I−e^−ks(t−t0))+R0 where Rt is the measured BIAcore response at time t, Req is the equilibrium plateau response, t is time, t0 is initial time, k, is an apparent association constant (ks=kaC+kdis, where ka is the association constant, C is the analyte concentration and kdis is the dissociation constant), and R0 is a response offset. In some experiments total IgG fractions from human plasma samples were obtained from binding to and acid elution from protein G. The plasma remaining after binding to protein G was remixed with fresh protein G beads and isolated as IgG-stripped plasma. Neutralized IgG preparations and IgG-stripped plasma diluted 1:1 with buffer were flowed over the β2GPI chip as described above. Results and Discussion
# [2] = test system: Normal human plasma; assay: Surface plasmon resonance (BIAcore): control plasma/serum over immobilized β2GPI proteins; assay type: binding; conditions: serum of 55 controls; for Req (mean ± sem): diluted 1:1
# Source text: as §1, §2
# as §3, with “Neutralized IgG preparations and IgG-stripped plasma diluted 1:1 with buffer were flowed over the β2GPI chip as described above. Results and Discussion” left out
# [3] = target: affinity purified β2GPI-dependent antiphospholipid antibody from patient 6509; assay: comp. inhibition ELISA
# [4] = target: affinity purified β2GPI-dependent antiphospholipid antibody from patient 7104; assay: comp. inhibition ELISA
# [5] = target: affinity purified β2GPI-dependent antiphospholipid antibody from patient 6652; assay: comp. inhibition ELISA
# [6] = target: β2GPI-dependent antiphospholipid antibody from patient 6701; assay: comp. inhibition ELISA
# [7] = target: affinity purified β2GPI-dependent antiphospholipid antibody from patient 6203; assay: comp. inhibition ELISA
# [8] = target: affinity purified β2GPI-dependent antiphospholipid antibody from patient 7101; assay: comp. inhibition ELISA
# [9] = target: affinity purified β2GPI-dependent antiphospholipid antibody from patient 6644; assay: comp. inhibition ELISA
# [10] = target: β2GPI-dependent antiphospholipid antibody from patient 7015; assay: comp. inhibition ELISA
# [11] = target: affinity purified β2GPI-dependent antiphospholipid antibody from patient 6632; assay: comp. inhibition ELISA
molecule,measurement,setting,value
B1,BIAcore Req,"[1]; non-selective patient 6117, IgG-stripped Plasma (1:2)",0
same,BIAcore Req,"[1]; non-selective patient 6117, Total IgG (1:4)",120
same,BIAcore Req,"[1]; non-selective patient 6117, Whole Plasma (1:2)",324
same,BIAcore Req,"[1]; non-selective patient 6194, IgG-stripped Plasma (1:2)",0
same,BIAcore Req,"[1]; non-selective patient 6194, Total IgG (1:4)",470
same,BIAcore Req,"[1]; non-selective patient 6194, Whole Plasma (1:2)",2046
same,BIAcore Req,"[1]; non-selective patient 6611, IgG-stripped Plasma (1:2)",0
same,BIAcore Req,"[1]; non-selective patient 6611, Total IgG (1:4)",251
same,BIAcore Req,"[1]; non-selective patient 6611, Whole Plasma (1:2)",892
same,BIAcore Req,"[1]; non-selective patient 6627, IgG-stripped Plasma (1:2)",0
same,BIAcore Req,"[1]; non-selective patient 6627, Total IgG (1:4)",132
same,BIAcore Req,"[1]; non-selective patient 6627, Whole Plasma (1:2)",324
same,BIAcore Req,"[1]; non-selective patient 6649, IgG-stripped Plasma (1:2)",0
same,BIAcore Req,"[1]; non-selective patient 6649, Total IgG (1:4)",253
same,BIAcore Req,"[1]; non-selective patient 6649, Whole Plasma (1:2)",758
same,BIAcore Req,"[1]; non-selective patient 7013, IgG-stripped Plasma (1:2)",0
same,BIAcore Req,"[1]; non-selective patient 7013, Total IgG (1:4)",115
same,BIAcore Req,"[1]; non-selective patient 7013, Whole Plasma (1:2)",241
same,BIAcore Req,"[1]; patient 6207, IgG-stripped Plasma (1:2)",0
same,BIAcore Req,"[1]; patient 6207, Total IgG (1:4)",480
same,BIAcore Req,"[1]; patient 6207, Whole Plasma (1:2)",1450
same,BIAcore Req,"[1]; patient 6501, IgG-stripped Plasma (1:2)",0
same,BIAcore Req,"[1]; patient 6501, Total IgG (1:4)",732
same,BIAcore Req,"[1]; patient 6501, Whole Plasma (1:2)",1526
same,BIAcore Req,"[1]; patient 6515, IgG-stripped Plasma (1:2)",0
same,BIAcore Req,"[1]; patient 6515, Total IgG (1:4)",440
same,BIAcore Req,"[1]; patient 6515, Whole Plasma (1:2)",1024
same,BIAcore Req,"[1]; patient 6601, IgG-stripped Plasma (1:2)",0
same,BIAcore Req,"[1]; patient 6601, Total IgG (1:4)",266
same,BIAcore Req,"[1]; patient 6601, Whole Plasma (1:2)",792
same,BIAcore Req,"[1]; patient 6626, IgG-stripped Plasma (1:2)",49
same,BIAcore Req,"[1]; patient 6626, Total IgG (1:4)",1132
same,BIAcore Req,"[1]; patient 6626, Whole Plasma (1:2)",1622
same,BIAcore Req,"[1]; patient 6642, IgG-stripped Plasma (1:2)",48
same,BIAcore Req,"[1]; patient 6642, Total IgG (1:4)",480
same,BIAcore Req,"[1]; patient 6642, Whole Plasma (1:2)",811
same,BIAcore Req,"[1]; patient 6701, IgG-stripped Plasma (1:2)",0
same,BIAcore Req,"[1]; patient 6701, Total IgG (1:4)",460
same,BIAcore Req,"[1]; patient 6701, Whole Plasma (1:2)",952
same,BIAcore Req,"[1]; patient 6703, IgG-stripped Plasma (1:2)",0
same,BIAcore Req,"[1]; patient 6703, Total IgG (1:4)",556
same,BIAcore Req,"[1]; patient 6703, Whole Plasma (1:2)",1001
same,BIAcore Req,"[1]; patient 7015, IgG-stripped Plasma (1:2)",0
same,BIAcore Req,"[1]; patient 7015, Total IgG (1:4)",864
same,BIAcore Req,"[1]; patient 7015, Whole Plasma (1:2)",2092
same,BIAcore Req,"[1]; patient 7201, IgG-stripped Plasma (1:2)",0
same,BIAcore Req,"[1]; patient 7201, Total IgG (1:4)",292
same,BIAcore Req,"[1]; patient 7201, Whole Plasma (1:2)",603
same,Median Req,[1]; serum of 106 APS patients (GPL ≧ 20),635
same,Req (mean ± sem),"[1]; serum of 106 APS patients (GPL ≧ 20), listed as D1-5",730 ± 42
same,Req (mean ± sem),"[1]; serum of 106 APS patients (GPL ≧ 20), listed as β2-GPI(D1-5)",730
same,Median Req,[2],201
same,Req (mean ± sem),[2]; listed as D1-5,328 ± 52
same,Req (mean ± sem),[2]; listed as β2-GPI(D1-5),328
B2,IC50,[3],> 47 µM
same,Max inhibition,[3],10%
same,IC50,[4],> 47 µM
same,Max inhibition,[4],0%
same,IC50,[5],> 47 µM
same,Max inhibition,[5],15%
same,IC50,[6],> 47 µM
same,Max inhibition,[6],10%
same,IC50,[7],> 47 µM
same,Max inhibition,[7],5%
same,IC50,[8],> 47 µM
same,Max inhibition,[8],5%
same,IC50,[9],> 47 µM
same,Max inhibition,[9],10%
same,IC50,[10],> 47 µM
same,Max inhibition,[10],10%
same,IC50,[11],> 47 µM
same,Max inhibition,[11],10%

# Reference: patent publication US6858210B1, “Therapeutic and diagnostic domain 1 β2GPI polypeptides and methods of using same” (La Jolla Pharmaceutical Co., priority 1998, dated 2005)
